Here are results for 54 sequences from the supplement of paper PMC11780869.

In this data set the test system is Bacillus subtilis. Briefly: cleaved RNA product abundance (RNA/gDNA barcode ratio) relative to median wild-type variant (ratio to wild type); higher = more accumulation of the downstream cleavage product. The note with it: cleavage site: cggR-gapA (positions -7 to +36 mutated). In outline: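 Reporter mRNAs (truncated aprE or tetM) carrying barcoded, mutagenized RNase Y cleavage-site windows were made from oligos with a 9% error rate and integrated into the B. subtilis chromosome. Cultures grew in LB at 37°C from OD600 0.0003 to 0.3. Cleaved RNA was gel-selected, reverse transcribed and barcode-sequenced alongside genomic DNA barcodes, with UMI collapsing. Cleaved product abundance is the RNA:gDNA barcode ratio per variant, scaled to the median wild-type variant.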

[1] abbreviates: experiment (reporter, strain, medium): exp 4a: truncated aprE reporter, strain BJT201 with 2% xylose (RNase J1 expressed).
[2] abbreviates: experiment (reporter, strain, medium): exp 2b: truncated aprE reporter, strain BJT200.

As for “ACAGACGAAGGAGCCGCAAAGAATTTATTAAGGGATGAATAATCCCTCAATATACATATCTCTCACTTATTTAAA”, the “cleaved RNA product abundance” value under setting [1] turned out to be 0.606.

Turning to “ACAGACGAAGGAGCCGCAAAGAATTTATTAAGGGATGAATAATCCCTCAATATAGATATCTCTCACTTATTTAAA”, the “cleaved RNA product abundance” value under setting [1] is 0.431.

As for “ACAGACGAAGGAGCCGCAAAGAATTTATTAAGGGATGAATAATCCCTCAATATATATATCTCTCACTTATTTAAA”, the “cleaved RNA product abundance” value under setting [2] came out at 0.649 and the “cleaved RNA product abundance” value under setting [1] was 0.46.

As for “ACAGACGAAGGAGCCGCAAAGAATTTATTAAGGGATGAATAATCCCTCAATATTAATATCTCTCACTTATTTAAA”, the “cleaved RNA product abundance” value under setting [2] turned out to be 0.109.

For “ACAGACGAAGGAGCCGCAAAGAATTTATTAAGGGATGAATAATCCCTCAATCTAAATATCTCTCACTTATTTAAA”, the “cleaved RNA product abundance” value under setting [1] was 0.102.

In the case of “ACAGACGAAGGAGCCGCAAAGAATTTATTAAGGGATGAATAATCCCTCAATTTAAATATCTCTCACTTATTTAAA”, the “cleaved RNA product abundance” value is, setting by setting: under setting [2], 0.154; under setting [1], 0.0947.

In the case of “ACAGACGAAGGAGCCGCAAAGAATTTATTAAGGGATGAATAATCCCTCACTATAAATATCTCTCACTTATTTAAA”, the “cleaved RNA product abundance” value by setting is: under setting [2], 0.193; under setting [1], 0.283.

For the sequence “ACAGACGAAGGAGCCGCAAAGAATTTATTAAGGGATGAATAATCCCTCATTATAAATATCTCTCACTTATTTAAA”, the “cleaved RNA product abundance” value under setting [2] was 0.278 and the “cleaved RNA product abundance” value under setting [1] worked out at 0.377.

Consider “ACAGACGAAGGAGCCGCAAAGAATTTATTAAGGGATGAATAATCCCTCCATATAAATATCTCTCACTTATTTAAA”, for which, under setting [1], the “cleaved RNA product abundance” value came to 0.424.

For the sequence “ACAGACGAAGGAGCCGCAAAGAATTTATTAAGGGATGAATAATCCCTCGATATAAATATCTCTCACTTATTTAAA”, under setting [1], the “cleaved RNA product abundance” value worked out at 0.422.

On to “ACAGACGAAGGAGCCGCAAAGAATTTATTAAGGGATGAATAATCCCTCTATATAAATATCTCTCACTTATTTAAA”, for which the “cleaved RNA product abundance” value runs as follows: under setting [2], 0.363; under setting [1], 0.543.

In the case of “ACAGACGAAGGAGCCGCAAAGAATTTATTAAGGGATGAATAATCCCTTAATATAAATATCTCTCACTTATTTAAA”, under setting [1], the “cleaved RNA product abundance” value came out at 0.448.

For the sequence “ACAGACGAAGGAGCCGCAAAGAATTTATTAAGGGATGAATAATCCGTCAATATAAATATCTCTCACTTATTTAAA”, the “cleaved RNA product abundance” value under setting [1] turned out to be 0.163.

Take “ACAGACGAAGGAGCCGCAAAGAATTTATTAAGGGATGAATAATCCTTCAATATAAATATCTCTCACTTATTTAAA”: the “cleaved RNA product abundance” value under setting [1] amounted to 0.397.

In the case of “ACAGACGAAGGAGCCGCAAAGAATTTATTAAGGGATGAATAATCGCTCAATATAAATATCTCTCACTTATTTAAA”, the “cleaved RNA product abundance” value turned out to be 0.105 under setting [2] and 0.0604 under setting [1].

“ACAGACGAAGGAGCCGCAAAGAATTTATTAAGGGATGAATAATCTCTCAATATAAATATCTCTCACTTATTTAAA”: under setting [1], the “cleaved RNA product abundance” value came out at 0.844.

As to “ACAGACGAAGGAGCCGCAAAGAATTTATTAAGGGATGAATAATGCATCAATATAAATATCTCTCACTTATTTAAA”, the “cleaved RNA product abundance” value under setting [1] worked out at 0.2.

For the sequence “ACAGACGAAGGAGCCGCAAAGAATTTATTAAGGGATGAATAATGCCTCAATATAAATATCTCTCACTTATTTAAA”, the “cleaved RNA product abundance” value under setting [1] was found to be 0.177.

For “ACAGACGAAGGAGCCGCAAAGAATTTATTAAGGGATGAATAATTCCTCAATATAAATATCTCTCACTTATTTAAA”, under setting [1], the “cleaved RNA product abundance” value amounted to 0.394.

Take “ACAGACGAAGGAGCCGCAAAGAATTTATTAAGGGATGAATACTCCCTCAATATAAATATCTCTCACTTATTTAAA”: the “cleaved RNA product abundance” value was 0.404 under setting [2] and 0.583 under setting [1].

Consider “ACAGACGAAGGAGCCGCAAAGAATTTATTAAGGGATGAATAGTCCCTCAATATAAATATCTCTCACTTATTTAAA”, for which the “cleaved RNA product abundance” value under setting [1] is 0.713.

With “ACAGACGAAGGAGCCGCAAAGAATTTATTAAGGGATGAATCATCCCTCAATATAAATATCTCTCACTTATTTAAA”, under setting [1], the “cleaved RNA product abundance” value was determined as 0.545.

“ACAGACGAAGGAGCCGCAAAGAATTTATTAAGGGATGAATTATCCCTCAATATAAATATCTCTCACTTATTTAAA”: the “cleaved RNA product abundance” value reads like this: under setting [2], 0.531; under setting [1], 0.268.

On to “ACAGACGAAGGAGCCGCAAAGAATTTATTAAGGGATGACTAATCCCTCAATATAAATATCTCTCACTTATTTAAA”, for which, under setting [2], the “cleaved RNA product abundance” value was determined as 0.3.

On to “ACAGACGAAGGAGCCGCAAAGAATTTATTAAGGGATGCATAATCCCTCAATATAAATATCTCTCACTTATTTAAA”, for which the “cleaved RNA product abundance” value amounted to 0.535 under setting [2] and 0.597 under setting [1].

Take “ACAGACGAAGGAGCCGCAAAGAATTTATTAAGGGATGTATAATCCCTCAATATAAATATCTCTCACTTATTTAAA”: the “cleaved RNA product abundance” value under setting [1] is 0.683.

Regarding “ACAGACGAAGGAGCCGCAAAGAATTTATTAAGGGATTAATAATCACTCAATATAAATATCTCTCACTTATTTAAA”, the “cleaved RNA product abundance” value under setting [1] came to 0.153.

In the case of “ACAGACGAAGGAGCCGCAAAGAATTTATTAAGGGATTAATAATCCCTCAATATAAATATCTCTCACTTATTTAAA”, the “cleaved RNA product abundance” value under setting [2] is 0.771 and the “cleaved RNA product abundance” value under setting [1] turned out to be 0.772.

“ACAGACGAAGGAGCCGCAAAGAATTTATTAAGGGCTGAATAATCCCTCAATATAAATATCTCTCACTTATTTAAA”: under setting [1], the “cleaved RNA product abundance” value was 0.402.

Regarding “ACAGACGAAGGAGCCGCAAAGAATTTATTAAGGGGTGAATAATCCCTCAATATAAATATCTCTCACTTATTTAAA”, the “cleaved RNA product abundance” value under setting [1] turned out to be 0.526.

Consider “ACAGACGAAGGAGCCGCAAAGAATTTATTAAGGGTTGAATAATCCCTCAATATAAATATCTCTCACTTATTTAAA”, for which, under setting [1], the “cleaved RNA product abundance” value came to 0.388.

For the sequence “ACAGACGAAGGAGCCGCAAAGAATTTATTAAGGTATGAATAATCCCTCAATATAAATATCTCTCACTTATTTAAA”, the “cleaved RNA product abundance” value is, setting by setting: under setting [2], 0.102; under setting [1], 0.178.

For the sequence “ACAGACGAAGGAGCCGCAAAGAATTTATTAAGTGATGAATAATCCCTCAATATAAATATCTCTCACTTATTTAAA”, the “cleaved RNA product abundance” value runs as follows: under setting [2], 0.127; under setting [1], 0.118; (experiment (reporter, strain, medium): exp 6: tetM reporter, strain 168) 0.117.

Take “ACAGACGAAGGAGCCGCAAAGAATTTATTAATGGATGAATAATCCCTCAATATAAATATCTCTCACTTATTTAAA”: the “cleaved RNA product abundance” value by setting is: under setting [2], 0.105; under setting [1], 0.111.

As to “ACAGACGAAGGAGCCGCAAAGAATTTATTACGGGATGAATAATCCCTCAATATAAATATCTCTCACTTATTTAAA”, the “cleaved RNA product abundance” value is, setting by setting: under setting [2], 0.303; under setting [1], 0.37.

Take “ACAGACGAAGGAGCCGCAAAGAATTTATTATGGGATGAATAATCCCTCAATATAAATATCTCTCACTTATTTAAA”: the “cleaved RNA product abundance” value came out at 0.266 under setting [2] and 0.292 under setting [1].

For the sequence “ACAGACGAAGGAGCCGCAAAGAATTTATTCAGGGATGAATAATCCCTCAATATAAATATCTCTCACTTATTTAAA”, the “cleaved RNA product abundance” value under setting [2] came to 0.624 and the “cleaved RNA product abundance” value under setting [1] amounted to 0.549.

Take “ACAGACGAAGGAGCCGCAAAGAATTTATTTAGGAATGAATAATCCCTCAATATAAATATCTCTCACTTATTTAAA”: the “cleaved RNA product abundance” value under setting [1] turned out to be 0.0547.

For the sequence “ACAGACGAAGGAGCCGCAAAGAATTTCTTAAGGGATGAATAATCCCTCAATATAAATATCTCTCACTTATTTAAA”, the “cleaved RNA product abundance” value under setting [1] was determined as 0.217.

As for “ACAGACGAAGGAGCCGCAAAGAATTTTTTAAGGGATGAATAATCCCTCAATATAAATATCTCTCACTTATTTAAA”, under setting [1], the “cleaved RNA product abundance” value stood at 0.216.

For “ACAGACGAAGGAGCCGCAAAGACATTATTAAGGGATGAATAATCCCTCAATATAAATATCTCTCACTTATTTAAA”, under setting [1], the “cleaved RNA product abundance” value was found to be 0.85.

Regarding “ACAGACGAAGGAGCCGCAAAGACGCTATTAAGGGATGAATAATCCCTCAATATAAATATCTCTCACTTATTTAAA”, the “cleaved RNA product abundance” value under setting [2] came to 0.548.

For “ACAGACGAAGGAGCCGCAAAGACGTCATTAAGGGATGAATAATCCCTCAATATAAATATCTCTCACTTATTTAAA”, the “cleaved RNA product abundance” value under setting [1] stood at 0.449.

“ACAGACGAAGGAGCCGCAAAGACGTTATAAAGGGATGAATAATCCCTCAATATAAATATCTCTCACTTATTTAAA”: under setting [1], the “cleaved RNA product abundance” value stood at 0.401.

“ACAGACGAAGGAGCCGCAAAGACGTTATTAAAGGATGAATAATCCCTCAATATAAATATCTCTCACTTATTTAAA”: under setting [1], the “cleaved RNA product abundance” value was 0.181.

On to “ACAGACGAAGGAGCCGCAAAGACGTTATTAACGGATGAATAATCCCTCAATATAAATATCTCTCACTTATTTAAA”, for which the “cleaved RNA product abundance” value under setting [1] was 0.165.

Regarding “ACAGACGAAGGAGCCGCAAAGACGTTATTAAGAGATGAATAATCCCTCAATATAAATATCTCTCACTTATTTAAA”, the “cleaved RNA product abundance” value came out at 0.101 under setting [2] and 0.116 under setting [1].

Take “ACAGACGAAGGAGCCGCAAAGACGTTATTAAGCGATGAATAATCCCTCAATATAAATATCTCTCACTTATTTAAA”: the “cleaved RNA product abundance” value under setting [1] worked out at 0.155.

“ACAGACGAAGGAGCCGCAAAGACGTTATTAAGGAATGAATAATCCCTCAATATAAATATCTCTCACTTATTTAAA”: under setting [1], the “cleaved RNA product abundance” value was determined as 0.14.

Consider “ACAGACGAAGGAGCCGCAAAGACGTTATTAAGGGATAAATAATCCCTCAATATAAATATCTCTCACTTATTTAAA”, for which the “cleaved RNA product abundance” value under setting [1] was determined as 1.2.

As to “ACAGACGAAGGAGCCGCAAAGACGTTATTAAGGGATCAATAATCCCTCAATATAAATATCTCTCACTTATTTAAA”, the “cleaved RNA product abundance” value under setting [1] was 0.743.

On to “ACAGACGAAGGAGCCGCAAAGACGTTATTAAGGGATGAATAAACCCTCAATATAAATATCTCTCACTTATTTAAA”, for which the “cleaved RNA product abundance” value under setting [1] was 0.312.

Consider “ACAGACGAAGGAGCCGCAAAGACGTTATTAAGGGATGAATAATCACTCAATATAAATATCTCTCACTTATTTAAA”, for which the “cleaved RNA product abundance” value came out at 0.101 under setting [2] and 0.188 under setting [1].

With “ACAGACGAAGGAGCCGCAAAGACGTTATTAAGGGATGAATAATCCATCAATATAAATATCTCTCACTTATTTAAA”, the “cleaved RNA product abundance” value under setting [2] stood at 0.156 and the “cleaved RNA product abundance” value under setting [1] came out at 0.312.
